What was measured:
[1] = biological target: human PD-L1 on mature human monocyte-derived dendritic cells (human) (UniProt Q9NZQ7); experiment: flow cytometry, Kd estimated from MFI of Ig fusion protein binding to TNF-α-matured human monocyte-derived dendritic cells; the cells express both PD-L1 and PD-L2, so the value is an apparent avidity not resolved between the two ligands [panel B, table]
[2] = biological target: human PD-L2 on mature human monocyte-derived dendritic cells (human) (UniProt Q9BQ51); experiment: as above
Sequence of human PD-L2 on mature human monocyte-derived dendritic cells (human) (Q9BQ51 20-273): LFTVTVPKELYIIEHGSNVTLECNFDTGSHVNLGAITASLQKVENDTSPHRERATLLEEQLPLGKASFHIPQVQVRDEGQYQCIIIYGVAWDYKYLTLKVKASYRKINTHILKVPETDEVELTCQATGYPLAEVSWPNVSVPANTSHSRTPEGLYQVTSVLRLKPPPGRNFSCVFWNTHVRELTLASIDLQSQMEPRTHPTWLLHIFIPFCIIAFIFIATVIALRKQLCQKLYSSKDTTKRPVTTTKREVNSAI

Sequence of human PD-L1 on mature human monocyte-derived dendritic cells (human) (Q9NZQ7 19-290): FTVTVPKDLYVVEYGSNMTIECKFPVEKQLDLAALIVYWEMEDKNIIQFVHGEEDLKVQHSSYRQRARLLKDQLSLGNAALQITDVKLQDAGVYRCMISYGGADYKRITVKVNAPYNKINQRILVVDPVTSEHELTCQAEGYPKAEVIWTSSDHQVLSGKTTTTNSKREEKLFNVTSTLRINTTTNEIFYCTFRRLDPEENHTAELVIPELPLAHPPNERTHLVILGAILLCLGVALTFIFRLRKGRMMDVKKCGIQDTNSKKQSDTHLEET

PD-1 Ig (Fc fusion) showed a Kd [1] of 325 nM and a Kd [2] of 325 nM.
